According to the Immune Epitope Database (IEDB):
pKd: −log10 of the molar value.

Molecular target: HLA-A*02:01
Test: IEDB peptide-MHC binding, purified MHC/direct/fluorescence; filed as Kd, often an IC50 or EC50 that approximates it; ≥ and ≤ were set here for values at or beyond the usual limits of such assays
Conditions: source organism: Human immunodeficiency virus 1

With RSLFNTVAVLY as the sequence, how does the pKd read?
Its pKd is 8.30.

How did the pKd turn out when KSLFNTIAVLY was run?
The pKd was 8.30.

How did the pKd turn out when RSLYNTVAVL was run?
Its pKd is 8.30.

RSLFNTIAVL was tested. Which pKd did it give?
The pKd was 8.30.

With KSLFNTIAVL as the sequence, how does the pKd read?
The pKd was 8.30.

RSLFNTVATL was tested. Which pKd did it give?
The pKd was 8.30.

With KSLFNTIATLY as the sequence, how does the pKd read?
Its pKd is 8.30.

SLFNTVATLY was tested. Which pKd did it give?
The pKd was 8.30.

How did the pKd turn out when RSLYNTVAVLY was run?
The pKd was 8.00.

KSLYNTVAVL was tested. Which pKd did it give?
The pKd was 8.30.

RSLYNTVATLY was tested. Which pKd did it give?
The pKd was 8.00.

RSLYNTIAVLY was tested. Which pKd did it give?
Its pKd is 8.30.

KSLYNTVATLY was tested. Which pKd did it give?
The pKd was 8.30.

KSLYNTVATL was tested. Which pKd did it give?
Its pKd is 8.00.

SLYNTVAVLY was tested. Which pKd did it give?
The pKd was 8.30.

With RSLFNTVAVL as the sequence, how does the pKd read?
The pKd was 8.00.

RSLYNTIATL was tested. Which pKd did it give?
The pKd was 8.00.

With KSLFNTVAVL as the sequence, how does the pKd read?
The pKd was 8.30.

RSLFNTIATLY was tested. Which pKd did it give?
The pKd was 8.30.

With SLFNTIATLY as the sequence, how does the pKd read?
Its pKd is 8.30.

With KSLFNTVATL as the sequence, how does the pKd read?
The pKd was 8.30.

With RSLYNTIAVL as the sequence, how does the pKd read?
The pKd was 8.30.

How did the pKd turn out when KSLFNTIATL was run?
Its pKd is 8.30.

With SLFNTVAVLY as the sequence, how does the pKd read?
Its pKd is 8.30.

SLYNTIATLY was tested. Which pKd did it give?
Its pKd is 8.30.

How did the pKd turn out when RSLYNTIATLY was run?
Its pKd is 7.40.

How did the pKd turn out when RSLYNTVATL was run?
The pKd was 8.00.

SLYNTIAVLY was tested. Which pKd did it give?
Its pKd is 8.30.

With RSLFNTIAVLY as the sequence, how does the pKd read?
The pKd was 8.30.

How did the pKd turn out when KSLFNTVATLY was run?
Its pKd is 8.30.

With KSLYNTIATLY as the sequence, how does the pKd read?
Its pKd is 7.70.

SLFNTIAVLY was tested. Which pKd did it give?
Its pKd is 8.30.

How did the pKd turn out when KSLYNTIATL was run?
The pKd was 8.30.

How did the pKd turn out when KSLYNTIAVL was run?
Its pKd is 8.30.

KSLYNTVAVLY was tested. Which pKd did it give?
The pKd was 8.30.
